Our source for the fold increase against SEL1L S658P, response and fold reduction against WT and HET livers values is paper PMC10873344.

For experiment [1], the target named is mouse SEL1L S658P/F668Y-FLAG (mouse). Nature of the experiment: co-IP; anti-FLAG agarose IP from lysates of SEL1L-/- HEK293T cells transfected with SEL1L-FLAG variants, blots for endogenous partners; 150 mM NaCl, 0.2% NP-40, 0.1% Triton X-100, 25 mM Tris-HCl pH 7.5, overnight at 4 C.
In experiment [2] the target is HRD1 (HMG-CoA reductase degradation 1), endogenous human, Q86TM6-3. Nature of the experiment: co-immunoprecipitation (FLAG-agarose IP, Western blot quantitation). Particulars: SEL1L-/- HEK293T cells; n = 3; mean ± SEM; parent: est. 1.0; read off a plot. (In general: A western blot detects proteins with antibodies after separation by electrophoresis.)
Experiment [3] deals with OS9 (Osteosarcoma amplified 9), endogenous human (UniProt Q13438). The description is as above. The note with it: SEL1L-/- HEK293T cells; n = 3; mean ± SEM; parent: est. 1.0; read off a plot.
In experiment [4] the target is HRD1 (HMG-CoA reductase degradation 1), endogenous human, Q86TM6-3. Described as above. The note with it: SEL1L-/- HEK293T cells; n = 3; mean ± SEM; parent: est. 1.0; read off a plot. The source holds these as a separate data set.
Experiment [5] has as its target OS9 (Osteosarcoma amplified 9), endogenous human (UniProt Q13438). The description is as above. The note with it: SEL1L-/- HEK293T cells; n = 3; mean ± SEM; parent: est. 1.0; read off a plot. The source holds these as a separate data set.
The target of experiment [6] is SEL1L^S658P, endogenous mouse (homozygous KI liver) (mouse (endogenous in liver)). As to the kind of experiment: co-IP; IP of endogenous SEL1L or HRD1 (home-made antibody, protein A agarose) from livers of 5-week-old WT, HET and KI mice; 150 mM NaCl, 1% NP-40, 25 mM Tris-HCl pH 7.5.

Chain of UniProt Q13438 (Q13438 26-667): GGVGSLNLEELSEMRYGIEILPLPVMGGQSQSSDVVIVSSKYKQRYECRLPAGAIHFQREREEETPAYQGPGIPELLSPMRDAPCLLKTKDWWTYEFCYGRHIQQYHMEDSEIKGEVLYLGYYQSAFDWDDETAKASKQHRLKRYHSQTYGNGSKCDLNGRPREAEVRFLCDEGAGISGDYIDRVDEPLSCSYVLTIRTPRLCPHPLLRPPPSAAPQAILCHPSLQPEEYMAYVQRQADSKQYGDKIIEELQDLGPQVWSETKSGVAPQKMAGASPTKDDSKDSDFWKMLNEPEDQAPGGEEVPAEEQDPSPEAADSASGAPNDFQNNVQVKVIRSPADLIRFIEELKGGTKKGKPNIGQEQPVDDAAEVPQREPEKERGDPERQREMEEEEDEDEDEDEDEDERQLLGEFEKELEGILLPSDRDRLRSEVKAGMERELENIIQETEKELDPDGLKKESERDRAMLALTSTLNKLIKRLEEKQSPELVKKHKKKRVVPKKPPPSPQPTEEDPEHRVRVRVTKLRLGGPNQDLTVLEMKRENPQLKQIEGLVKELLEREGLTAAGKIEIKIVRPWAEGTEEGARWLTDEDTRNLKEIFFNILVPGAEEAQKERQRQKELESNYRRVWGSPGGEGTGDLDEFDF
Chain of HRD1 (HMG-CoA reductase degradation 1), endogenous human, Q86TM6-3 (Q86TM6 other isoform, or with tags, fused parts or gaps): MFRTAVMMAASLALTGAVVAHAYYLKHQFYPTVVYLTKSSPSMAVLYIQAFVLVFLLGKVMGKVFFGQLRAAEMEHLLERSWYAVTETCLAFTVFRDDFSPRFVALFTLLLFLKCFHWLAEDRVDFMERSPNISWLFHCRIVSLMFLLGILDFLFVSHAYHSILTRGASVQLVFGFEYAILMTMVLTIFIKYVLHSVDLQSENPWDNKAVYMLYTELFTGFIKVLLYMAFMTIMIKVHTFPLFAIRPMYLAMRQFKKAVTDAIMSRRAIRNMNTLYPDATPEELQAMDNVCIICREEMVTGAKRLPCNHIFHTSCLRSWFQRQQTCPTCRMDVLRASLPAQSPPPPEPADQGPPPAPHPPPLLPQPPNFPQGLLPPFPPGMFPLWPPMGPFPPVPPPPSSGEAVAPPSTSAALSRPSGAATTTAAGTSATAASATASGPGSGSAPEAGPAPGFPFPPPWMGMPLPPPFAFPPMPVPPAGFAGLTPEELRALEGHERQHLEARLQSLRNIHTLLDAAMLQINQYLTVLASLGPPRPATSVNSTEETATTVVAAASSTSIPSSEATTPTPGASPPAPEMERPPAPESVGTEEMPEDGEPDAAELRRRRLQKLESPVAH

In the case of “HRD1 (HMG-CoA reductase degradation 1), endogenous human (from UniProt Q86TM6-3 1-616) (enzyme)”, in experiment [1], the fold increase against SEL1L S658P was 2 fold. Turning to “mouse SEL1L (WT)-FLAG (from UniProt Q9Z2G6-1) S658P”, the response in experiment [2] came to 0.17 a.u; in experiment [3] it was 0.95 a.u; in experiment [4] it was 0.15 a.u; in experiment [5], 1 a.u.

The substance “HRD1, endogenous mouse (liver) (from UniProt Q9DBY1 1-612) (enzyme)” came in with a fold reduction against WT and HET livers in experiment [6] of 5 fold. With “mouse SEL1L (WT)-FLAG (from UniProt Q9Z2G6-1) F668A”, the response in experiment [4] was 0.07 a.u; in experiment [5], 1 a.u. Consider “mouse SEL1L (WT)-FLAG (from UniProt Q9Z2G6-1) F668Y”, for which the response in experiment [2] was found to be 0.9 a.u; in experiment [3], 1 a.u. In the case of “mouse SEL1L (WT)-FLAG (from UniProt Q9Z2G6-1) S658P; F668A”, the response is 0.11 a.u in experiment [4] and 0.97 a.u in experiment [5]. Take “mouse SEL1L (WT)-FLAG (from UniProt Q9Z2G6-1) S658P; F668Y”: the response in experiment [3] came to 0.95 a.u.
